Key:
[1] = test system: cultured epithelial cells (MDCK, T-84, Caco-2bbe); assay: Epithelial permeability / TEER after purified PA-I; type: cell-based; settings: MDCK monolayers; purified protein
[2] = Cecal instillation of purified PA-I with cytotoxins in mice

B1: PA-I: purified lectin/adhesin protein of P. aeruginosa (protein, UniProt Q05097 2-122, looked up)
PA-I galactophilic lectin: AWKGEVLANNEAGQVTSIIYNPGDVITIVAAGWASYGPTQKWGPQGDREHPDQGLICHDAFCGALVMKIGNSGTIPVNTGLFRWVAPNNVQGAITLIYNDVPGTYGNNSGSFSVNIGKDQS
**Q.** Which results are given for B1?
**A.** TEER of epithelial cells [1]: decreased the TEER of epithelial cells to the same degree as P. aeruginosa; mortality, compound alone ([2]; cecal injection): had no effect; mortality, combination with exotoxin A or elastase ([2]; cecal instillation, surgically stressed and sham-operated mice): induced significant mortality

— patent US20080194611A1, “Modulation of Cell Barrier Dysfunction” (priority 2005, published 2008)
